We go through one molecule from article PMC2748697, “Capzb2 Interacts with β-Tubulin to Regulate Growth Cone Morphology and Neurite Outgrowth” (PLoS Biology, 2009).

For the assay, the target named is T1, GST-Capza2 (mouse, UniProt P47754 1-286).
T1 construct: Capza2, α2 subunit of F-actin capping protein, from E17 mouse cDNA; primers run from the start codon (atg gcg gat ctg) to the stop codon; pGEX-4T-2 vector; The methods of the native gel say 'Capza2', the legend 'GST-Capza2'; also called α2-subunit; the other CP subunit; source: E. coli BL21-DE3 or ArcticExpress (DE3)RP, purified (glutathione sepharose)
Nature of the assay: native gel or EMSA; 1 µM GST-Capzb2 or GST-Capzb2Δ106–140 with 1 µM GST-Capza2, 10 min at 4°C, 4%–20% Tris-glycine native gel, bands excised and identified by Western blot. The following applies: both partners purified.

B1: GST-Capzb2Δ106–140 (natural protein, mouse, UniProt P47757-2 1-272, looked up)
chain: MSDQQLDCALDLMRRLPPQQIEKNLSDLIDLVPSLCEDLLSSVDQPLKIARDKVVGKDYLLCDYNRDGDSYRSPWSNKYDPPLEDGAMPSARLRKLEVEANNAFDSKKIKGCWDSIHVVEVQEKSSGRTAHYKLTSTVMLWLQTNKSGSGTMNLGGSLTRQMEKDETVSDCSPHIANIGRLVEDMENKIRSTLNEIYFGKTKDIVNGLRSVQTFADKSKQEALKNDLVEALKRKQQC
notes: pGEX-4T-2 vector; also called deletion mutant; source: E. coli BL21-DE3 or ArcticExpress (DE3)RP, purified (glutathione sepharose)
As to B1, the binding result was “binds”.
